Assay results as given in patent US20070197430A1, “Conjugates And Therapeutic Uses Thereof” (priority 2004, published 2007).
Peptide text beside a SMILES is read from it.

T1: Bcl-w ΔC29 (Homo sapiens, UniProt Q92843)
T1 sequence (Q92843 1-164 limits assumed): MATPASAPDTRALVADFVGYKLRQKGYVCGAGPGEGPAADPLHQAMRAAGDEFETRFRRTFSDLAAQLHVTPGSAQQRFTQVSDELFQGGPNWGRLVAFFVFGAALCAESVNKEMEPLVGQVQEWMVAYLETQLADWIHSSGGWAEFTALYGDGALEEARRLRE


target: GST tagged Bcl w delta C29 protein (UniProt Q92843); test: competition assay; competitor: biotinylated Bim BH3 peptide; details: not given

Molecule | IC50
Peptide T (linear) Ac-IWIAQELCitCitIGDEFNA-NH2 | 20 nM
Ac-VQIARKLQAIADQFHR-NH2 [Bmf peptide Ac-…-NH2] | 0.25 nM
Ac-IAIAQELRRIGDEFNA-NH2 [Peptide P (linear) Ac-…-NH2] | 42 nM
Ac-IFIAQELRRIGDEFNA-NH2 [Peptide N (linear) Ac-…-NH2] | 11 nM

Other lines, results leading:

IC50 | Molecule
2.4 nM | Peptide G (constrained) Ac-QAIAQZLRRIGDZFNA-NH2
52 nM | Ac-REIGAQLRRMADDLNA-NH2 [Puma peptide Ac-…-NH2]
3.3 nM | Ac-IWIAQELRRIGDEFAA-NH2 [Peptide S (linear) Ac-…-NH2]
17 nM | Ac-IRIAQELRRIGDEFNA-NH2 [Peptide Q (linear) Ac-…-NH2]
3.3 nM | Ac-IWIAQQLRRIGDQFNA-NH2 [Peptide H (linear) Ac-…-NH2]

target: T1, Bcl-w ΔC29; test: Alphascreen GST competition assay with biotinylated Bim BH3-26 peptide; type: binding; details: Examples 8 and 9

binding affinity for Bcl-w ΔC29 compared to the linear 16-mer, in words | Molecule
drop in binding | CC[C@H](C)[C@H](NC(C)=O)C(=O)N[C@@H](Cc1ccccc1)C(=O)N[C@H](C(=O)N[C@@H](C)C(=O)N[C@@H](CCC(N)=O)C(=O)N[C@@H](CCC(=O)O)C(=O)N[C@@H](CC(C)C)C(=O)N[C@@H](CCCNC(=N)N)C(=O)N[C@@H](CCCNC(=N)N)C(=O)N[C@H](C(=O)NCC(=O)N[C@@H](CC(=O)O)C(=O)N[C@@H](CCC(=O)O)C(=O)N[C@@H](Cc1ccccc1)C(=O)N[C@@H](CC(N)=O)C(=O)N[C@@H](C)C(N)=O)[C@@H](C)CC)[C@@H](C)CC [N] (Ac-IFIAQELRRIGDEFNA-NH2)
slight decrease in binding affinity | CC[C@H](C)[C@H](NC(C)=O)C(=O)N[C@@H](Cc1c[nH]c2ccccc12)C(=O)N[C@@H](C)C(=O)N[C@@H](C)C(=O)N[C@@H](CCC(N)=O)C(=O)N[C@@H](CCC(=O)O)C(=O)N[C@@H](CC(C)C)C(=O)N[C@@H](CCCNC(=N)N)C(=O)N[C@@H](CCCNC(=N)N)C(=O)N[C@H](C(=O)NCC(=O)N[C@@H](CC(=O)O)C(=O)N[C@@H](CCC(=O)O)C(=O)N[C@@H](Cc1ccccc1)C(=O)N[C@@H](CC(N)=O)C(=O)N[C@@H](C)C(N)=O)[C@@H](C)CC [Peptide I] (Ac-IWAAQELRRIGDEFNA-NH2)

same assay, conditions: relative to linear 16-mer

decrease in binding affinity | Molecule
3 fold | CC[C@H](C)[C@H](NC(C)=O)C(=O)N[C@@H](Cc1c[nH]c2ccccc12)C(=O)N[C@H](C(=O)N[C@@H](C)C(=O)N[C@@H](CCC(N)=O)C(=O)N[C@@H](CCC(=O)O)C(=O)N[C@@H](CC(C)C)C(=O)N[C@@H](CCCNC(=N)N)C(=O)N[C@@H](CCCNC(=N)N)C(=O)N[C@@H](C)C(=O)NCC(=O)N[C@@H](CC(=O)O)C(=O)N[C@@H](CCC(=O)O)C(=O)N[C@@H](Cc1ccccc1)C(=O)N[C@@H](CC(N)=O)C(=O)N[C@@H](C)C(N)=O)[C@@H](C)CC [Peptide K] (Ac-IWIAQELRRAGDEFNA-NH2)
about 1000 fold | CC[C@H](C)[C@H](NC(C)=O)C(=O)N[C@@H](Cc1c[nH]c2ccccc12)C(=O)N[C@H](C(=O)N[C@@H](C)C(=O)N[C@@H](CCC(N)=O)C(=O)N[C@@H](CCC(=O)O)C(=O)N[C@@H](C)C(=O)N[C@@H](CCCNC(=N)N)C(=O)N[C@@H](CCCNC(=N)N)C(=O)N[C@H](C(=O)NCC(=O)N[C@@H](CC(=O)O)C(=O)N[C@@H](CCC(=O)O)C(=O)N[C@@H](Cc1ccccc1)C(=O)N[C@@H](CC(N)=O)C(=O)N[C@@H](C)C(N)=O)[C@@H](C)CC)[C@@H](C)CC [Peptide J] (Ac-IWIAQEARRIGDEFNA-NH2)
100 fold | CC[C@H](C)[C@H](NC(C)=O)C(=O)N[C@@H](Cc1c[nH]c2ccccc12)C(=O)N[C@@H](C)C(=O)N[C@@H](C)C(=O)N[C@@H](CCC(N)=O)C(=O)N[C@@H](CCC(=O)O)C(=O)N[C@@H](CC(C)C)C(=O)N[C@@H](CCCNC(=N)N)C(=O)N[C@@H](CCCNC(=N)N)C(=O)N[C@H](C(=O)NCC(=O)N[C@@H](CC(=O)O)C(=O)N[C@@H](CCC(=O)O)C(=O)N[C@@H](Cc1ccccc1)C(=O)N[C@@H](CC(N)=O)C(=O)N[C@@H](C)C(N)=O)[C@@H](C)CC [Peptide I] (Ac-IWAAQELRRIGDEFNA-NH2)
